Results on one molecule are retold here after patent US20250205190A1, “NUTRITIONAL COMPOSITION” (N.V. NUTRICIA, priority 2022, published 2025).

Assay in all cases: i-screen in vitro colon microbiota model, fermentation of infant faecal pool, 16S rRNA sequencing
Holding throughout (type): cell-based
What all share (conditions): t = 24 hours anaerobic fermentation, SIEM medium, 37° C., triplicate, ingredient conc. per Table 1

One assay relates to Enterobacteriaceae. On the procedure:
(§1) In an in vitro colon microbiota model, i-screen™ (TNO, Zeist, Netherlands), the effect of infant milk formula ingredients on the anaerobic fermentation of infant microbiota was assessed.
(§2) The in vitro microbiota model mimics colonic conditions. Before a consumed ingredient reaches the colon in a human, already a part of the digestion/absorption has taken place in the gastrointestinal tract preceding the colon. For each ingredient the degree of digestion/absorption before reaching the colon varies and this was taken into account when selecting the ingredient concentrations to be tested (see Table 1).
(§3) The infant faecal pool consisted of samples obtained from faeces of 5 European infants aged 3.5-8.5 months. The samples were thawed, homogenized, aliquoted and stored at −80° C. till the start of the i-screen assay run.
(§4) • Before starting the fermentation with the test ingredients. The infant fecal pool was incubated in an anaerobic flask for 4 hours in SIEM (simulated ileal environment media) medium (pH 5.8) under anaerobic conditions (37° C.; 300 rpm). Subsequently this SIEM medium with feces was homogenized and distributed into a 96 w-plate. • The test ingredients were pre-diluted in a higher concentration in fresh SIEM medium and added to the existing medium in the 96 wells plate. For milk fat the addition method was slightly adapted, milk fat was added to fresh SIEM medium at 45° C., subsequently thoroughly homogenized, followed by addition to the wells in the 96 w plate. • The i-screen experiment included an untreated control (microbiota only), an positive control (Inulin, Raftiline ST), blanks (SIEM medium only) and technical controls (internal controls for DNA isolation and sequencing). • Each test condition was conducted in triplicate. • After 24 hours of fermentation in SIEM medium under anaerobic conditions at 37° C., samples were collected for DNA analyses. […]
(§5) Changes in the microbiota composition were analyzed by using 16S rDNA amplicon sequencing. […] Amplicon quality and size were analyzed on a Fragment Analyzer (Advanced Analytical Technologies, Inc.). […]

The subject of a further assay is Bifidobacteriaceae. On the procedure: as §1, §2, §3, §4, §5
In the next assay the test system is Bacteroidaceae. On the procedure: as §1, §2, §3, §4, §5

B1: Lactoferrin (protein, UniProt P24627 20-708, looked up)
Lactotransferrin: APRKNVRWCTISQPEWFKCRRWQWRMKKLGAPSITCVRRAFALECIRAIAEKKADAVTLDGGMVFEAGRDPYKLRPVAAEIYGTKESPQTHYYAVAVVKKGSNFQLDQLQGRKSCHTGLGRSAGWIIPMGILRPYLSWTESLEPLQGAVAKFFSASCVPCIDRQAYPNLCQLCKGEGENQCACSSREPYFGYSGAFKCLQDGAGDVAFVKETTVFENLPEKADRDQYELLCLNNSRAPVDAFKECHLAQVPSHAVVARSVDGKEDLIWKLLSKAQEKFGKNKSRSFQLFGSPPGQRDLLFKDSALGFLRIPSKVDSALYLGSRYLTTLKNLRETAEEVKARYTRVVWCAVGPEEQKKCQQWSQQSGQNVTCATASTTDDCIVLVLKGEADALNLDGGYIYTAGKCGLVPVLAENRKSSKHSSLDCVLRPTEGYLAVAVVKKANEGLTWNSLKDKKSCHTAVDRTAGWNIPMGLIVNQTGSCAFDEFFSQSCAPGADPKSRLCALCAGDDQGLDKCVPNSKEKYYGYTGAFRCLAEDVGDVAFVKNDTVWENTNGESTADWAKNLNREDFRLLCLDGTRKPVTEAQSCHLAVAPNHAVVSRSDRAAHVKQVLLHQQALFGKNGKNCPDKFCLFKSETKNLLFNDNTECLAKLGGRPTYEEYLGTEYVTAIANLKKCSTSPLLEACAFLTR
notes: Friesland Campina, Vivinal Lactoferrin, comprises 96 wt. % lactoferrin; 2 mg/ml in well
On to B1, for which the “Average relative abundance (%) [st. dev] Enterobacteriaceae” value in the assay with Enterobacteriaceae is given as 41.73 (1.64) %. The “Average relative abundance (%) [st. dev] Bifidobacteriaceae” value with Bifidobacteriaceae is on record as 9.39 (1.50) %. Besides, in the assay with Bacteroidaceae, the “Average relative abundance (%) [st. dev] Bacteroidaceae” value is given as 19.81 (0.48) %.
